In publication PMC11077089, “Molecular basis of A. thaliana KEOPS complex in biosynthesizing tRNA t6A”:

Assays:
Test in all cases: EMSA; 1:5 RNA:protein; MST: 20 mM PBS pH 7.5, 300 mM NaCl, 0.05% Tween 20, 25 C, 50 nM RNA; EMSA: 20 mM Tris-HCl pH 7.5, 300 mM NaCl, 5 mM b-mercaptoethanol, 20% glycerol, agarose gel in Tris-glycine pH 8.0 (8.5 for FAM-RNA), 4 C
Conditions in all cases: protein: recombinant;recombinant;recombinant;recombinant; tags: ;none (6His on partner CGI121);6His (C-term);6His (C-term); chain copies: 2;2;2;2; label: 5' 6-FAM; tRNA cloverleaf
[1] = target: T1, KAE1 Y305A;BUD32;CGI121;PCC1 (Arabidopsis thaliana;Arabidopsis …, UniProt O49653;Q94K14;Q6NMZ4;Q8GWD7 1-353;1-226;1-172;1-96, Y305A|||)
T1 sequence 1: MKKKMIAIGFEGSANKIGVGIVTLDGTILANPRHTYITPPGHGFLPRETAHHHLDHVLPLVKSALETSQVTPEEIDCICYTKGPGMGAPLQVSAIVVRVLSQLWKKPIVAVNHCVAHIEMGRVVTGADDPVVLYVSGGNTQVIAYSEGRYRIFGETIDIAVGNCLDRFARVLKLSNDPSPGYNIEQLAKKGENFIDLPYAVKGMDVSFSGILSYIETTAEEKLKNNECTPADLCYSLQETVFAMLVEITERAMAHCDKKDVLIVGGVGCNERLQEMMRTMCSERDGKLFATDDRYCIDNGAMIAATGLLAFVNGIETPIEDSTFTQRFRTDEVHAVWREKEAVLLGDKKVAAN
T1 sequence 2: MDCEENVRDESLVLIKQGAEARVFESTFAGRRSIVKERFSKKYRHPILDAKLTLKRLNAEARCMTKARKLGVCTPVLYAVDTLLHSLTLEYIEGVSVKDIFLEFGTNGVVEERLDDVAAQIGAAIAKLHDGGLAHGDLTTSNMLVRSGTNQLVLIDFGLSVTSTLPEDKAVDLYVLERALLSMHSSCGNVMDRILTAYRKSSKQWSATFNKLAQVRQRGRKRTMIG
T1 sequence 3: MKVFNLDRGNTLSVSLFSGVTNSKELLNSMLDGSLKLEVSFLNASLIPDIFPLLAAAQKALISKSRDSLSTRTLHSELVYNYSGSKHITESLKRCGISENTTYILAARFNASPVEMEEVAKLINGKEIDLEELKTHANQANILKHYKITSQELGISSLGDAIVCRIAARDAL
T1 sequence 4: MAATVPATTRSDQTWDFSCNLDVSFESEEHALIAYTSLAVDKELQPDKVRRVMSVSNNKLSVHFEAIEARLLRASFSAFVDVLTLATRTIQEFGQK

[2] = target: T2, KAE1 R284C;BUD32;CGI121;PCC1 (Arabidopsis thaliana;Arabidopsis …, UniProt O49653;Q94K14;Q6NMZ4;Q8GWD7 1-353;1-226;1-172;1-96, R284C|||)
T2 sequence 1: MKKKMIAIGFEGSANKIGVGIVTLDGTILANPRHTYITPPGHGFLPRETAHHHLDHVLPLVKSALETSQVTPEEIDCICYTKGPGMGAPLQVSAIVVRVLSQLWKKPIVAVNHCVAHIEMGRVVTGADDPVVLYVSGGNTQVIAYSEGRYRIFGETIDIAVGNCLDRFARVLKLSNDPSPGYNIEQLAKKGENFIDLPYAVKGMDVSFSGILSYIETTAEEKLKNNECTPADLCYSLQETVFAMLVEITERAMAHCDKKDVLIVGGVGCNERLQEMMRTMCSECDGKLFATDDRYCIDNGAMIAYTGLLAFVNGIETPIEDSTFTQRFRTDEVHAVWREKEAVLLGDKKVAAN
T2 sequence 2: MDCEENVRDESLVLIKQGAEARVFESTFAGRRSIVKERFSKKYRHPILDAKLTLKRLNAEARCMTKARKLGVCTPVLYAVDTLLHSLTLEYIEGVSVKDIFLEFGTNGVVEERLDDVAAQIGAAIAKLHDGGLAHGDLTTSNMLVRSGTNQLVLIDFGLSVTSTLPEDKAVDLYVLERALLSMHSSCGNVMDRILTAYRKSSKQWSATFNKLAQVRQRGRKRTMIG
T2 sequence 3: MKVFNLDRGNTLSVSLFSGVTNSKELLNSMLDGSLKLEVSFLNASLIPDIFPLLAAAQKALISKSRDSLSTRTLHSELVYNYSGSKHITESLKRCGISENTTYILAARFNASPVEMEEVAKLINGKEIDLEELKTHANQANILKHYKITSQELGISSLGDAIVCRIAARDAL
T2 sequence 4: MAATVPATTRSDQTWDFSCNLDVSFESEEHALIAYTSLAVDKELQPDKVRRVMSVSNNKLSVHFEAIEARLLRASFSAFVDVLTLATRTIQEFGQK

[3] = target: T3, KAE1 D298R;BUD32;CGI121;PCC1 (Arabidopsis thaliana;Arabidopsis …, UniProt O49653;Q94K14;Q6NMZ4;Q8GWD7 1-353;1-226;1-172;1-96, D298R|||)
T3 sequence 1: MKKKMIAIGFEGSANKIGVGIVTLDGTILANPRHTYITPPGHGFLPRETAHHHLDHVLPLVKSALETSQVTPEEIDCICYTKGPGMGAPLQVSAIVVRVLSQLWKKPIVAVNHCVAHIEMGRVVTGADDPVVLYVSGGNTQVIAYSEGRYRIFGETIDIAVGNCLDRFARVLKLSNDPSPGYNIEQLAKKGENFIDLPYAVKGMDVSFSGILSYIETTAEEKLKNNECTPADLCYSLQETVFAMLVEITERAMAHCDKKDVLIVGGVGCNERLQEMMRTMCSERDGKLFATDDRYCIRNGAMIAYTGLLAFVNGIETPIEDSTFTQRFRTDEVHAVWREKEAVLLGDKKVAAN
T3 sequence 2: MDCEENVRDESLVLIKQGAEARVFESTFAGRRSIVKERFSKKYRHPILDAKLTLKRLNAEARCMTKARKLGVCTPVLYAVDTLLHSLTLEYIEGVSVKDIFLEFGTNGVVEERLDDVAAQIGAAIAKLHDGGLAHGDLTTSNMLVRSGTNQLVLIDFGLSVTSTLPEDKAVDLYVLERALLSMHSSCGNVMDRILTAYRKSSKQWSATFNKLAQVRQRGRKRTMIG
T3 sequence 3: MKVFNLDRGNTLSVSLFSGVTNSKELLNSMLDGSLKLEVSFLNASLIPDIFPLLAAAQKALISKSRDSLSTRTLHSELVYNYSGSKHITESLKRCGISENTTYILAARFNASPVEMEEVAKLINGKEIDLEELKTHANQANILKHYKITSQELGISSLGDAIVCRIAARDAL
T3 sequence 4: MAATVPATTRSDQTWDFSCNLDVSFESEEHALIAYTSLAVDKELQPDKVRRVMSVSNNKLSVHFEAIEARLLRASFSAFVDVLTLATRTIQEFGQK

[4] = target: T4, KAE1 I17F;BUD32;CGI121;PCC1 (Arabidopsis thaliana;Arabidopsis …, UniProt O49653;Q94K14;Q6NMZ4;Q8GWD7 1-353;1-226;1-172;1-96, I17F|||)
T4 sequence 1: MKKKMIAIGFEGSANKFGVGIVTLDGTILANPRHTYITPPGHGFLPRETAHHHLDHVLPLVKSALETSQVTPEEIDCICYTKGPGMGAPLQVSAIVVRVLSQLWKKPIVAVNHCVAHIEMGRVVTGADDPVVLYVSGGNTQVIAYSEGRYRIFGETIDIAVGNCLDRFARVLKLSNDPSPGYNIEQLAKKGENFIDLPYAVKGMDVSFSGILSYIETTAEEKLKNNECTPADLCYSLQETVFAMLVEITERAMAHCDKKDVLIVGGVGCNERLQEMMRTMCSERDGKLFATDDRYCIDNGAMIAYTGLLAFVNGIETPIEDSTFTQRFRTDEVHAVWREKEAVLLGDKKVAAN
T4 sequence 2: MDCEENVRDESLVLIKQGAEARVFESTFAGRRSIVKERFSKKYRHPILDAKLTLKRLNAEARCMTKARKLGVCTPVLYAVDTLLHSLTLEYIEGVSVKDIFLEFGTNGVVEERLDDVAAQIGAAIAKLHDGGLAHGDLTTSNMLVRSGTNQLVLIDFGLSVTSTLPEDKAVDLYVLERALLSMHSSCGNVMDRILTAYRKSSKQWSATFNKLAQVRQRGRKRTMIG
T4 sequence 3: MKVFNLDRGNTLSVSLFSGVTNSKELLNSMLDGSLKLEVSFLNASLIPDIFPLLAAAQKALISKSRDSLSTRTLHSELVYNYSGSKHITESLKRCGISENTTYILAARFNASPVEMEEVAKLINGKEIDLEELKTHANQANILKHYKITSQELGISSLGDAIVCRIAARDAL
T4 sequence 4: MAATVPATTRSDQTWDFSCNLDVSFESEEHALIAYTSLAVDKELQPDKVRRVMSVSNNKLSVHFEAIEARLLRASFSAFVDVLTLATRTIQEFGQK

Measured: binding result

B1: 5'-6FAM-tRNAArgCCU (structured_RNA)
RNA: GCGCCUGUAGCUCAGUGGAUAGAGCGUCUGUUUCCUAAGCAGAAGGUCGUAGGUUCGACCCCUACCUGGCGCGCCA
binds: all assays above
